From the supplement of paper PMC7125110
± gives the standard error. Fewer inactive variants are shown than the library holds.

B1: glmS ribozyme (parent)
chain: AUAAAAGCGCCAGAACUACAGAAAUGUAGUUGACGAGGAGGAGGUUUAUCGAAUUUUCGGCGGAUGCCUCCAAA

Variants of: B1
Assay: self-cleavage kobs at 2500 uM GlcN6P; higher = faster cleavage; RNA array
Conditions: with glucosamine-6-phosphate
Summary of the method: (§1)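 E. coli RNA polymerase transcribed barcoded ribozyme variants in situ on sequenced MiSeq chips, which were tracked via a hybridised Cy3 probe at 37 °C. Tiles were imaged over ~14 h after glucosamine-6-phosphate (40 μM to 10 mM) in HEPES/KCl/Mg(OAc)2 buffer was flowed in. Normalised per-tile medians were fit to one- or two-exponential decays for kobs, and kcat and KM came from weighted Michaelis–Menten fits.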

Variant | self-cleavage kobs at 2500 uM GlcN6P
G7A C67A U69A | < 1e-05 s⁻¹
C11A A52G C70U | 8.24e-05 ± 3.2e-05 s⁻¹
A6U U31C C50A U56G | < 1e-05 s⁻¹
C11U A12C G32U | < 1e-05 s⁻¹
C16A A42U A64U | < 1e-05 s⁻¹
C8G G37C G43A G59A | < 1e-05 s⁻¹
A6C G37C | < 1e-05 s⁻¹
C34U A39U G41C U69G | < 1e-05 s⁻¹
A15G G60U G63C | < 1e-05 s⁻¹
U47C C61G | < 1e-05 s⁻¹
G40A U45C A53C | 3.19e-05 ± 1.5e-05 s⁻¹
G35A C61U | < 1e-05 s⁻¹
G40A A72C | 0.00214 ± 0.00067 s⁻¹
G9U G13U G29C G32C A33G | < 1e-05 s⁻¹
C8U G32C C70U | < 1e-05 s⁻¹
G7U C8U G32U C50U | < 1e-05 s⁻¹
A14U A48U U54G G60C U69A C71U | 4.74e-05 ± 1.9e-05 s⁻¹
G13U A42U C50U | < 1e-05 s⁻¹
G7C G37A G63U | < 1e-05 s⁻¹
G9A C10U U30A G44A | < 1e-05 s⁻¹
G9C G37C A42U G43C C50U C67G C71A | < 1e-05 s⁻¹
A12G A39U U49G U55G | < 1e-05 s⁻¹
G37A G44A U56C C71A | < 1e-05 s⁻¹
G7A G44U A48G | < 1e-05 s⁻¹
C16A U31A A39G U57C G60U | < 1e-05 s⁻¹
G37U A42C U55G | < 1e-05 s⁻¹

Variant | self-cleavage kobs at 2500 uM GlcN6P
G43C G66U C67A | 0.000168 ± 5.2e-05 s⁻¹
U30C G38U A42C | < 1e-05 s⁻¹
A14C A39U G41U U65G | < 1e-05 s⁻¹
U30G G32U | 0.000223 ± 6.5e-05 s⁻¹
U31C U56A C67U | 0.000427 ± 0.00012 s⁻¹
C8G G38A A48G U57G | < 1e-05 s⁻¹
U30C C58G C68U | 0.000104 ± 2.9e-05 s⁻¹
G13C A15G C58A | 5.1e-05 ± 1.5e-05 s⁻¹
A15G G32A C58G | 8.81e-05 ± 2.9e-05 s⁻¹
G44U C50G U56G | < 1e-05 s⁻¹
C11G G41U A48C C70G | < 1e-05 s⁻¹
U57C U69C | 6.42e-05 ± 2.1e-05 s⁻¹
A52U A53C C67G | < 1e-05 s⁻¹
G9U U31G G44U C61U | < 1e-05 s⁻¹
G21U A64U | 0.000111 ± 2.9e-05 s⁻¹
G13C G37U C58U G60A | < 1e-05 s⁻¹
A6C A14G C50U | < 1e-05 s⁻¹
A12C A36G C71U | < 1e-05 s⁻¹
A48C G51A C70G | < 1e-05 s⁻¹
A14C G29C U30C A52U U65A | < 1e-05 s⁻¹
A6C G9C G35A A52G C68U | < 1e-05 s⁻¹
C11A A15U G44C | < 1e-05 s⁻¹
U31C C58A C61U A64U | < 1e-05 s⁻¹
A42U U45A U49G | < 1e-05 s⁻¹
A15G A39U G40A C61A | < 1e-05 s⁻¹
A1U G41U C70G C71U | 0.000249 ± 4e-05 s⁻¹

Variant | self-cleavage kobs at 2500 uM GlcN6P
C34A C50U C67A | < 1e-05 s⁻¹
A6U G37C C68U | < 1e-05 s⁻¹
A52G C61A C67U | 0.000197 ± 7.1e-05 s⁻¹
G32U U46C C68A C71U | < 1e-05 s⁻¹
A14U U47A C71G | 0.000172 ± 6.8e-05 s⁻¹
A14U G43U C68G | 0.0033 ± 0.00062 s⁻¹
G9U U31A C67A C70U | < 1e-05 s⁻¹
C8G G59C A64G | < 1e-05 s⁻¹
A12U A14U A33C C50U | < 1e-05 s⁻¹
G38A A52G U57A C68A | 7.01e-05 ± 1.7e-05 s⁻¹
A52G A53U G66C C67G | < 1e-05 s⁻¹
A12G C16U A53C | 7.22e-05 ± 1.7e-05 s⁻¹
A15U G37U G43C U56A C68G C71G | < 1e-05 s⁻¹
U31C A48G G63C C67U | < 1e-05 s⁻¹
C16U G37A U46C U56G | 0.000119 ± 2.7e-05 s⁻¹
C34A G44U C58G | < 1e-05 s⁻¹
G9C C16G A39G | < 1e-05 s⁻¹
A15G G51U C61A | < 1e-05 s⁻¹
U47G U57C C68A | 8.58e-05 ± 3.6e-05 s⁻¹
G35A G41A U54G | < 1e-05 s⁻¹
G7A G13A C68A | < 1e-05 s⁻¹
A52C C58U G59U | < 1e-05 s⁻¹
C50A U55A C70U | 5.24e-05 ± 2.1e-05 s⁻¹
G32U U55G U56G | 0.000148 ± 4.3e-05 s⁻¹
G40U C50G G62A | < 1e-05 s⁻¹
A14U C16G U65A | 5.56e-05 ± 1.9e-05 s⁻¹

Variants of: B1
Assay: self-cleavage kobs at 10000 uM GlcN6P; higher = faster cleavage; RNA array
Conditions: with glucosamine-6-phosphate
Summary of the method: as §1

Variant | self-cleavage kobs at 10000 uM GlcN6P
A6C G37C | < 1e-05 s⁻¹
U47C C61G | < 1e-05 s⁻¹
G13U A42U C50U | < 1e-05 s⁻¹
A14C A39U G41U U65G | < 1e-05 s⁻¹
U30G G32U | 0.000612 ± 0.00015 s⁻¹
U31C U56A C67U | 0.000671 ± 0.00015 s⁻¹
G13C A15G C58A | 0.000154 ± 2.6e-05 s⁻¹
A1U G41U C70G C71U | 0.000232 ± 6e-05 s⁻¹
A6U G37C C68U | < 1e-05 s⁻¹
G32U U55G U56G | 0.000376 ± 8.4e-05 s⁻¹
